Here are results for two sequences from article PMC4027156.

What all share (conditions): BLI in buffer A (5 mM HEPES pH 7.5, 10 mM NaCl), 2.5-10 uM protein; CD with 7.5 or 15 uM ds-(dCdG)6, protein/DNA 0-8, buffer not shown in material; temperature …
The target in data set [1] is T1, caZαPKZ K56A/P57A K56A;P57A (Carassius auratus) (UniProt Q7T2M9).
T1 sequence: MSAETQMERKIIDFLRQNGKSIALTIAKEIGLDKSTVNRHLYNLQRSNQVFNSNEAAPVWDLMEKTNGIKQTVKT
The experiment in a line: CD B-to-Z transition.

In data set [2] the target is T2, caZαPKZ R39A/K56A R39A;K56A (Carassius auratus) (UniProt Q7T2M9).
T2 sequence: T1 sequence with R39A, A57P
The experiment in a line: CD B-to-Z transition.

Data set [3] concerns the target T3, caZαPKZ S35A/K56A/P57A S35A;K56A;P57A (Carassius auratus) (UniProt Q7T2M9).
T3 sequence: T1 sequence with S35A
The experiment in a line: CD B-to-Z transition.

Data set [4] has as its system yabZαE3L (yaba-like disease virus). Kind of data set: BLI. On the technique in general: Biolayer interferometry detects binding as a change in optical thickness at a sensor tip.

Positions count from the first letter of the chain named.

On to “CGCGCGCGCGCG (double strand) [ds-(dCdG)6]”, for which the binding signal (% of WT activity) in data set [1] stood at 50; in data set [2], 80; in data set [3], 50.

For the sequence “ATTATATCGCGCGCGCGCGCGCGCGCGCG / CGCGCGCGCGCGCGCGCGCG [biotin-ATTATAT(CG)10 duplex]”, in data set [4], the dissociation constant Kd worked out at 87.2 nM.

As usually defined, the Kd is the concentration at which binding is half-saturated.
